Source: patent publication US20250206834A1 (LANOVA MEDICINES, published 2025)
Each block holds one binder with its values, some of them ahead of it.

Experiments:
[1] = target: T1, human 4-1BB (human, UniProt Q07011 24-255); test: flow cytometry, CHO-K1 cells overexpressing human 4-1BB
T1 construct: whole, on cells; also called hu4-1BB; CD137

[2] = target: T2, human CEACAM5 protein (Sino-11077-H08H-100UG) (human, UniProt P06731 35-685); test: ELISA, human CEACAM5 protein coated at 2 ug/mL
T2 construct: Bought protein; also called soluble recombinant CEACAM5
T2 sequence (looked up): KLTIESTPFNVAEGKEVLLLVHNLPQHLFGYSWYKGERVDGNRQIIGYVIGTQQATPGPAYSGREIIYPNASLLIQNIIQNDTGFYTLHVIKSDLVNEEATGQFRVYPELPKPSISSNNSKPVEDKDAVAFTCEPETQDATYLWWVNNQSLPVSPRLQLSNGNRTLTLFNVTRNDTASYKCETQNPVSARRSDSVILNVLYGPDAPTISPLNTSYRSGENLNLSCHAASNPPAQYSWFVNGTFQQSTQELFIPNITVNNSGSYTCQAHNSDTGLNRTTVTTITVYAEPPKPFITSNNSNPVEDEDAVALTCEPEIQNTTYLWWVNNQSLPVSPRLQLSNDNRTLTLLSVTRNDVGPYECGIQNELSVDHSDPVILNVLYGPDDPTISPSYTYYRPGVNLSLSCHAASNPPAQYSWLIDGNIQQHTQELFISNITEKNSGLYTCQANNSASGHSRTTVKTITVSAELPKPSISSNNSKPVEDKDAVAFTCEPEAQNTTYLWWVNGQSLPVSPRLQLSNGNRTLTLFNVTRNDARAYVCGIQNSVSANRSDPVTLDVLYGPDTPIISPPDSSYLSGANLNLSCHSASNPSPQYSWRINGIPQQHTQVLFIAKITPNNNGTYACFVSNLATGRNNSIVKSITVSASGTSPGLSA

T1 sequence (Q07011 24-255): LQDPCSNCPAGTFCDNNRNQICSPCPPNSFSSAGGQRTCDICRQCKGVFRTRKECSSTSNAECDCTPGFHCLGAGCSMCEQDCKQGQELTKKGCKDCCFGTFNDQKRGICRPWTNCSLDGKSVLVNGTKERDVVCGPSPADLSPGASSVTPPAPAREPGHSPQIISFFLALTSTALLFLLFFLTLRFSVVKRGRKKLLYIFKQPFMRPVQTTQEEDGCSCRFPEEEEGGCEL

binding result [1]: binds
B1: IMMU130-263-1-3 (bispecific antibody)
heavy (part 1 of 2): EVQLVESGGGVVQPGRSLRLSCSASGFDFTTYWMSWVRQAPGKGLEWIGEIHPDSSTINYAPSLKDRFTISRDNAKNTLFLQMDSLRPEDTGVYFCASLYFGFPWFAYWGQGTPVTVSS
heavy (part 2 of 2): GGGGSGGGGSGGGGSGGGGSEVQLLESGGGLVQPGGSLRLSCAASGFTFSSSAMSWARQTPGKGFEWVSGIYSGGSTYYTESVKDRFTISRDNSKNTVYLQMNSLKPEDTAVYYCATWGTLRFGVWAEYDHWGQGTQVTVSS
light: DIQLTQSPSSLSASVGDRVTITCKASQDVGTSVAWYQQKPGKAPKLLIYWTSTRHTGVPSRFSGSGSGTDFTFTISSLQPEDIATYYCQQYSLYRSFGQGTKVEIK
notes: also called parental bispecific antibody; parental antibody; not shown: IgG1 heavy chain constant region (full IgG part, Fc of IgG1 backbone with N297A mutation); light chain constant region is not described

binding result [2]: binds
B2: Labetuzumab (antibody, V domains shown)
VH: B1 heavy (part 1 of 2)
VL: B1 light
notes: also called Immu130; parental CEACAM5 antibody
